Experimental data taken from US20200140522A1 (US Dept. of Health and Human Services, published 2020).

How the values were obtained:
[1] = target: T1, bovine LPL (lipoprotein lipase) (bovine, UniProt P11151 29-478); assay: cell-based or functional assay
T1 sequence (looked up): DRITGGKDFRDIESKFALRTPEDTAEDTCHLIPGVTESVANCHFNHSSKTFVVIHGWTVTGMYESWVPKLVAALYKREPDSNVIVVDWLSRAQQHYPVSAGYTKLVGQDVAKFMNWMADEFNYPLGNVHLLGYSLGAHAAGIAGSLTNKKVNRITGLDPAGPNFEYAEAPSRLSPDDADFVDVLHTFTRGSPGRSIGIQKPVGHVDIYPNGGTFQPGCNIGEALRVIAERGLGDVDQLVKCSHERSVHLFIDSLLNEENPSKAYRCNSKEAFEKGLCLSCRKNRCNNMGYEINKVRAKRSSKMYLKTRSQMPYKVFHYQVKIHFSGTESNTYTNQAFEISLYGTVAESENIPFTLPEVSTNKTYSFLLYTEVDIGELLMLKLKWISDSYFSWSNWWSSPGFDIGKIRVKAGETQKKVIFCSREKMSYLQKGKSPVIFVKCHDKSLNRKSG

[2] = target: T2, C2thirdhelix
T2 chain: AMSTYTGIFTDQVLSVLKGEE

[3] = target: T3, Delta4c
T3 chain: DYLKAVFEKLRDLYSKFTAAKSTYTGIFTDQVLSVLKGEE

[4] = target: T4, Delta4b-1
T4 chain: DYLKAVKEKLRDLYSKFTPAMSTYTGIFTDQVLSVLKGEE

[5] = target: T5, Delta4b-2
T5 chain: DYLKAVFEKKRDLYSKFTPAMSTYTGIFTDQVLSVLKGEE

[6] = target: T6, Delta4c trunc10
T6 chain: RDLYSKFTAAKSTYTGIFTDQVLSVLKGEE

[7] = target: T7, Delta5
T7 chain: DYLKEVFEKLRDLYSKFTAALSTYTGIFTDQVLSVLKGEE

[8] = target: T8, Delta4
T8 chain: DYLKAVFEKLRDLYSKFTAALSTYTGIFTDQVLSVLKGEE

[9] = target: T9, Delta13-31-PV
T9 chain: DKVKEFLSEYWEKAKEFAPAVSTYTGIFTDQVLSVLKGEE

[10] = target: variants of Delta5 with the indicated amino acid substitutions
[11] = target: T10, Delta4b
T10 chain: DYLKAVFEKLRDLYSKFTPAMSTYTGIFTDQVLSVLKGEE

[12] = target: T11, Delta4c trunc14
T11 chain: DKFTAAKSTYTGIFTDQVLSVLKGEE

[13] = target: T12, Delta4c trunc11
T12 chain: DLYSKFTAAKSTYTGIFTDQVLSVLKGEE

[14] = target: recombinant ApoC-III
[15] = target: T13, C2thirdhelix Stearylpos1
T13 chain: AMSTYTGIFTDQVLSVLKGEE

[16] = target: T14, Delta4c trunc7
T14 chain: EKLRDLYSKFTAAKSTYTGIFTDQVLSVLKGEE

[17] = target: T15, Delta6
T15 chain: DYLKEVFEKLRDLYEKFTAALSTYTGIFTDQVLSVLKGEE

[18] = target: T16, Delta4c trunc4
T16 chain: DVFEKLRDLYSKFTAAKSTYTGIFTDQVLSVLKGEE

[19] = target: T17, Delta4c trunc3
T17 chain: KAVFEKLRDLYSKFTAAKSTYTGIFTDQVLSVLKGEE

[20] = target: T18, C2thirdhelix Stearylpos17
T18 chain: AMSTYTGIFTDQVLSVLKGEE

[21] = target: T19, Delta4b T57F
T19 chain: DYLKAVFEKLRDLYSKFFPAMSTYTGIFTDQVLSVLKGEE

[22] = target: T20, C2thirdhelix Stearylpos2
T20 chain: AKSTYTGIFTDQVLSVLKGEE

[23] = target: T21, Delta4b-3
T21 chain: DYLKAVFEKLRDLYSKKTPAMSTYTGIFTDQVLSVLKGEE

## recombinant ApoC-III
[1]
  free fatty acid (NEFA) production, LPL assay with high TG human plasma (1:50): 1.7 µM
  free fatty acid (NEFA) production, LPL assay with human plasma: 0.8 µM

B1: bovine LPL (lipoprotein lipase) (protein)
chain: DRITGGKDFRDIESKFALRTPEDTAEDTCHLIPGVTESVANCHFNHSSKTFVVIHGWTVTGMYESWVPKLVAALYKREPDSNVIVVDWLSRAQQHYPVSAGYTKLVGQDVAKFMNWMADEFNYPLGNVHLLGYSLGAHAAGIAGSLTNKKVNRITGLDPAGPNFEYAEAPSRLSPDDADFVDVLHTFTRGSPGRSIGIQKPVGHVDIYPNGGTFQPGCNIGEALRVIAERGLGDVDQLVKCSHERSVHLFIDSLLNEENPSKAYRCNSKEAFEKGLCLSCRKNRCNNMGYEINKVRAKRSSKMYLKTRSQMPYKVFHYQVKIHFSGTESNTYTNQAFEISLYGTVAESENIPFTLPEVSTNKTYSFLLYTEVDIGELLMLKLKWISDSYFSWSNWWSSPGFDIGKIRVKAGETQKKVIFCSREKMSYLQKGKSPVIFVKCHDKSLNRKSG
[2]
  TG hydrolysis, in vitro LPL assay with apoC-II deficient patient sera: lipidation enhanced the ability of C2thirdhelix to promote TG hydrolysis
[3]
  TG hydrolysis, LPL assay with apoC-II deficient patient sera: Delta4c and its truncation variants promoted TG hydrolysis
[4]
  TG hydrolysis, in vitro LPL assay, 100 pM to 10 µM peptide: promoted TG hydrolysis in a dose-dependent manner
[5]
  TG hydrolysis, in vitro LPL assay, 100 pM to 10 µM peptide: promoted TG hydrolysis in a dose-dependent manner
[6]
  TG hydrolysis, LPL assay with apoC-II deficient patient sera: Delta4c and its truncation variants promoted TG hydrolysis
[7]
  TG hydrolysis, LPL assay using Intralipid as substrate: worked more efficiently than the native apoC-II protein at concentrations of between about 1 nM to about 10 µM
[8]
  TG hydrolysis, LPL assay using Intralipid as substrate: worked more efficiently than the native apoC-II protein at concentrations of between about 1 nM to about 10 µM
  TG hydrolysis, in vitro LPL assay, 100 pM to 10 µM peptide: promoted TG hydrolysis in a dose-dependent manner
[9]
  TG hydrolysis, in vitro LPL assay with apoC-II deficient patient sera: promoted TG hydrolysis in vitro in a dose-dependent manner
[10]
  TG hydrolysis, LPL assay with apoC-II deficient patient sera: all variants of Delta5 with the indicated amino acid substitutions and Delta6 exhibited the ability to promote TG hydrolysis in a dose dependent matter
[11]
  TG hydrolysis, in vitro LPL assay with apoC-II deficient patient sera: incorporation of proline at position 58 and the stearic acid modification at the lysine residue at position 56 enhanced the TG clearance ability of the exemplary apoC-III mimetic peptide Delta4
  TG hydrolysis, in vitro LPL assay, 100 pM to 10 µM peptide: promoted TG hydrolysis in a dose-dependent manner
[12]
  TG hydrolysis, LPL assay with apoC-II deficient patient sera: Delta4c and its truncation variants promoted TG hydrolysis
[13]
  TG hydrolysis, LPL assay with apoC-II deficient patient sera: Delta4c and its truncation variants promoted TG hydrolysis
[14]
  production of free fatty acid (NEFA), LPL assay with Intralipid as substrate: apoC-III inhibited the production of free fatty acid (NEFA)
[15]
  TG hydrolysis, in vitro LPL assay with apoC-II deficient patient sera: lipidation enhanced the ability of C2thirdhelix to promote TG hydrolysis
[16]
  TG hydrolysis, LPL assay with apoC-II deficient patient sera: Delta4c and its truncation variants promoted TG hydrolysis
[17]
  TG hydrolysis, LPL assay with apoC-II deficient patient sera: all variants of Delta5 with the indicated amino acid substitutions and Delta6 exhibited the ability to promote TG hydrolysis in a dose dependent matter
[18]
  TG hydrolysis, LPL assay with apoC-II deficient patient sera: Delta4c and its truncation variants promoted TG hydrolysis
[19]
  TG hydrolysis, LPL assay with apoC-II deficient patient sera: Delta4c and its truncation variants promoted TG hydrolysis
[20]
  TG hydrolysis, in vitro LPL assay with apoC-II deficient patient sera: lipidation enhanced the ability of C2thirdhelix to promote TG hydrolysis
[21]
  TG hydrolysis, in vitro LPL assay, 100 pM to 10 µM peptide: promoted TG hydrolysis in a dose-dependent manner
[22]
  TG hydrolysis, in vitro LPL assay with apoC-II deficient patient sera: lipidation enhanced the ability of C2thirdhelix to promote TG hydrolysis
[23]
  TG hydrolysis, in vitro LPL assay with apoC-II deficient patient sera: incorporation of proline at position 58 and the stearic acid modification at the lysine residue at position 56 enhanced the TG clearance ability of the exemplary apoC-III mimetic peptide Delta4
  TG hydrolysis, in vitro LPL assay, 100 pM to 10 µM peptide: promoted TG hydrolysis in a dose-dependent manner

## DWLKAFYDKVAEKLKEAFPAMSTYTGIFTDQVLSVLKGEE [apoC-II-a peptide]
[1]
  molar ratio of apoC-II-a to apoC-III that overcomes the in vitro inhibition of LPL: 0.1 molar ratio apoC-II-a : apoC-III
